T1: G9a and GLP (Homo sapiens, UniProt Q96KQ7+Q9H9B1)
T1 sequence (Q96KQ7 2-1210 limits assumed): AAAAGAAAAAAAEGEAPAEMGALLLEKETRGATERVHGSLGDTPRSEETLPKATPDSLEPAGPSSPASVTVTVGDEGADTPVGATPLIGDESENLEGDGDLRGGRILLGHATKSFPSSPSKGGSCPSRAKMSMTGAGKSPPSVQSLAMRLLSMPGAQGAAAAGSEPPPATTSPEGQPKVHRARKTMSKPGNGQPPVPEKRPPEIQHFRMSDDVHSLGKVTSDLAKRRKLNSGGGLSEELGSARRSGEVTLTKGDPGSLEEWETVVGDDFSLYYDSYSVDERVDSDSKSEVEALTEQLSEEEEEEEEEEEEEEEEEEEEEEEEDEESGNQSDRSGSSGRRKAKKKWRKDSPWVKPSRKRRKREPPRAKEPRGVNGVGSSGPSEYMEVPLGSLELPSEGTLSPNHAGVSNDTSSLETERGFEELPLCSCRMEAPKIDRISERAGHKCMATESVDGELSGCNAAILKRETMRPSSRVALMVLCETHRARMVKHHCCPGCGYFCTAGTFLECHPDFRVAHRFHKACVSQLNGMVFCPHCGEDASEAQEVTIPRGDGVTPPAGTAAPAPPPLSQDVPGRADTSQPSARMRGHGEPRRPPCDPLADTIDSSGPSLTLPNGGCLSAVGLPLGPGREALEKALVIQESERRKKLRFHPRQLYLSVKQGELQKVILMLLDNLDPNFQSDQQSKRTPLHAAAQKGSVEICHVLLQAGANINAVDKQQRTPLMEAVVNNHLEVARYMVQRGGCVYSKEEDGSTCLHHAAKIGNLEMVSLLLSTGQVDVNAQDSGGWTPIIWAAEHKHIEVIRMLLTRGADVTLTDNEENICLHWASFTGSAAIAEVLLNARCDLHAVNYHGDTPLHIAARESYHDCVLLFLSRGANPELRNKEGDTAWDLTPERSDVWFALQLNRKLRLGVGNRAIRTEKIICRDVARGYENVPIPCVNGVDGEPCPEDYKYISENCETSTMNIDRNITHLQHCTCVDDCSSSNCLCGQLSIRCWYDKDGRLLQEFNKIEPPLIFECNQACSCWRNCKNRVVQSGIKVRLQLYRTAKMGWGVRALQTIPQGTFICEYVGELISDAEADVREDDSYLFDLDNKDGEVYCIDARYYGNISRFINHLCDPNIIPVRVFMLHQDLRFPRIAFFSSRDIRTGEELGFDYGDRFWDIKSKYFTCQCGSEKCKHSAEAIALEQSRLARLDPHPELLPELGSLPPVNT
T1 sequence (Q9H9B1 2-1298 limits assumed): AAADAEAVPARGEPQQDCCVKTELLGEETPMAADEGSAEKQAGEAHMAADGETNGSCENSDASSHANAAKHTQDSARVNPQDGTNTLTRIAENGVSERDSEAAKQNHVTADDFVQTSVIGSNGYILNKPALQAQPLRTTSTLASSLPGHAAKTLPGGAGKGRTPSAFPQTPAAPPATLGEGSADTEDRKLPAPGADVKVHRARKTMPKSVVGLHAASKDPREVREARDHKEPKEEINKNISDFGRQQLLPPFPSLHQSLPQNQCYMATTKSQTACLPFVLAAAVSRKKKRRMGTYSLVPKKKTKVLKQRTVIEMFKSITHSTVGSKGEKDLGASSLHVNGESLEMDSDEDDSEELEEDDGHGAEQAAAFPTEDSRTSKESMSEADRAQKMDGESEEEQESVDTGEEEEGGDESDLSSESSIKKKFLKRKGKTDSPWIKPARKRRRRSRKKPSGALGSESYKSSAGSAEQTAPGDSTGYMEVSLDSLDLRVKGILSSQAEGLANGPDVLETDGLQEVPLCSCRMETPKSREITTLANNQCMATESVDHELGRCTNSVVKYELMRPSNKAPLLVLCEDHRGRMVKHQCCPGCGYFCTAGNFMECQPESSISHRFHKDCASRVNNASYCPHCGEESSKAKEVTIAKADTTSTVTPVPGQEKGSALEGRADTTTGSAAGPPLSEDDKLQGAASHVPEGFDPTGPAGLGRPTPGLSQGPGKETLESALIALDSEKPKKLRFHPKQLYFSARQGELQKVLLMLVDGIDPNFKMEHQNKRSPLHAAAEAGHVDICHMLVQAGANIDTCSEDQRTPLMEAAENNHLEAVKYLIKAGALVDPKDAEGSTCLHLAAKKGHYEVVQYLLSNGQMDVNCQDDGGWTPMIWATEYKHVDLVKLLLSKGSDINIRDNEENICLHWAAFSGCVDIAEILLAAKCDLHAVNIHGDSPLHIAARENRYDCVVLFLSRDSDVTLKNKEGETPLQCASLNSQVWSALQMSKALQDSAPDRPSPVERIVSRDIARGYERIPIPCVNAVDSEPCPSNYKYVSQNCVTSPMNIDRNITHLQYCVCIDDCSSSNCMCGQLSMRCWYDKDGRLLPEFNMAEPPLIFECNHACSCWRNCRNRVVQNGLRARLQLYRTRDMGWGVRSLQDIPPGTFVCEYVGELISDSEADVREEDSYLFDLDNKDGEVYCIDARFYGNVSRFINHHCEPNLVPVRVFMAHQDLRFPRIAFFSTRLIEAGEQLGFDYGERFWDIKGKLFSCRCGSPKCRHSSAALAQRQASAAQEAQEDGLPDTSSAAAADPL


Key:
3×MBT domain of L3MBTL1 = test: Triple SILAC pull-down, 3xMBT/3xMBTD355N ratio (cytoplasmic, nuclear and chromatin fractions of 293T cells); format: binding, human; settings: SILAC ratio 3xMBT vs 3xMBTD355N pull-down, 293T cells, all values in log base 2; for 3xMBT/D355N UNC Heavy: experiment with UNC0638 in heavy SILAC media; for 3xMBT/D355N UNC Light: experiment with UNC0638 in light SILAC media;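 for all read-outs here: proteins quantified with MaxQuant, requiring at least two unique peptides and quantification in both label directions, normalized to the mean of proteins from a digested loading control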
G9a and GLP = target: T1, G9a and GLP; test: Triple SILAC pull-down after UNC0638 treatment of 293T cells, DMSO/UNC0638 ratio of protein captured by 3×MBT; format: cell-based; parameters: cells were treated for 24 hours with UNC0638 at 2.5 μM or DMSO vehicle control; endogenous in cells; host or cells: HEK 293T; settings: all values in log base 2; for Relative to UNC0638 UNC Heavy / Relative to UNC0638 UNC Light: SILAC ratio DMSO relative to UNC0638, pull-down with 3xMBT; for Relative to UNC0638 UNC Heavy: UNC0638 in heavy SILAC media; for Relative to UNC0638 UNC Light: UNC0638 in light SILAC media; for Relative to UNC0638 Average: average of UNC Light and UNC Heavy experiments;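 for all read-outs here: mass spectrometry (Q-Exactive) SILAC quantitation, DMSO/UNC0638 ratio computed after subtracting 3×MBTD355N mutant pull-down background, only proteins with at least twofold 3×MBT over mutant signal considered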

Relative to UNC0638 UNC Heavy (G9a and GLP) [log base 2]	Relative to UNC0638 UNC Light (G9a and GLP) [log base 2]	Relative to UNC0638 Average (G9a and GLP) [log base 2]	Molecule	3xMBT/D355N UNC Heavy (3×MBT domain of L3MBTL1) [log base 2]	3xMBT/D355N UNC Light (3×MBT domain of L3MBTL1) [log base 2]
0.47	−1.35	−0.44	DUSP3 (protein, UniProt P51452 1-185, looked up) Dual specificity protein …: MSGSFELSVQDLNDLLSDGSGCYSLPSQPCNEVTPRIYVGNASVAQDIPKLQKLGITHVLNAAEGRSFMHVNTNANFYKDSGITYLGIKANDTQEFNLSAYFERAADFIDQALAQKNGRVLVHCREGYSRSPTLVIAYLMMRQKMDVKSALSIVRQNREIGPNDGFLAQLCQLNDRLAKEGKLKP	1.97	1.19
0.01	−0.64	−0.31	EEF1B2 (protein, UniProt P24534 2-225, looked up) Elongation factor 1-beta: GFGDLKSPAGLQVLNDYLADKSYIEGYVPSQADVAVFEAVSSPPPADLCHALRWYNHIKSYEKEKASLPGVKKALGKYGPADVEDTTGSGATDSKDDDDIDLFGSDDEEESEEAKRLREERLAQYESKKAKKPALVAKSSILLDVKPWDDETDMAKLEECVRSIQADGLVWGSSKLVPVGYGIKKLQIQCVVEDDKVGTDMLEEQITAFEDYVQSMDVAAFNKI	−0.81	−0.32

Further lines, the molecule ahead of its results:

Molecule	Relative to UNC0638 UNC Heavy (G9a and GLP) [log base 2]	Relative to UNC0638 UNC Light (G9a and GLP) [log base 2]	Relative to UNC0638 Average (G9a and GLP) [log base 2]	3xMBT/D355N UNC Heavy (3×MBT domain of L3MBTL1) [log base 2]	3xMBT/D355N UNC Light (3×MBT domain of L3MBTL1) [log base 2]
ORC5 (protein, UniProt O43913 1-435, looked up) Origin recognition complex …: MPHLENVVLCRESQVSILQSLFGERHHFSFPSIFIYGHTASGKTYVTQTLLKTLELPHVFVNCVECFTLRLLLEQILNKLNHLSSSEDGCSTEITCETFNDFVRLFKQVTTAENLKDQTVYIVLDKAEYLRDMEANLLPGFLRLQELADRNVTVLFLSEIVWEKFRPNTGCFEPFVLYFPDYSIGNLQKILSHDHPPEYSADFYAAYINILLGVFYTVCRDLKELRHLAVLNFPKYCEPVVKGEASERDTRKLWRNIEPHLKKAMQTVYLREISSSQWEKLQKDDTDPGQLKGLSAHTHVELPYYSKFILIAAYLASYNPARTDKRFFLKHHGKIKKTNFLKKHEKTSNHLLGPKPFPLDRLLAILYSIVDSRVAPTANIFSQITSLVTLQLLTLVGHDDQLDGPKYKCTVSLDFIRAIARTVNFDIIKYLYDFL	−2.12	0.06	−1.03	1.97	2.52
LANCL2 (protein, UniProt Q9NS86 2-450, looked up) LanC-like protein 2: GETMSKRLKLHLGGEAEMEERAFVNPFPDYEAAAGALLASGAAEETGCVRPPATTDEPGLPFHQDGKIIHNFIRRIQTKIKDLLQQMEEGLKTADPHDCSAYTGWTGIALLYLQLYRVTCDQTYLLRSLDYVKRTLRNLNGRRVTFLCGDAGPLAVGAVIYHKLRSDCESQECVTKLLQLQRSVVCQESDLPDELLYGRAGYLYALLYLNTEIGPGTVCESAIKEVVNAIIESGKTLSREERKTERCPLLYQWHRKQYVGAAHGMAGIYYMLMQPAAKVDQETLTEMVKPSIDYVRHKKFRSGNYPSSLSNETDRLVHWCHGAPGVIHMLMQAYKVFKEEKYLKEAMECSDVIWQRGLLRKGYGICHGTAGNGYSFLSLYRLTQDKKYLYRACKFAEWCLDYGAHGCRIPDRPYSLFEGMAGAIHFLSDVLGPETSRFPAFELDSSKRD	−0.05	−0.26	−0.16	1.44	1.81
SERBP1 (protein, UniProt Q8NC51 2-408, looked up) SERPINE1 mRNA-binding protein …: PGHLQEGFGCVVTNRFDQLFDDESDPFEVLKAAENKKKEAGGGGVGGPGAKSAAQAAAQTNSNAAGKQLRKESQKDRKNPLPPSVGVVDKKEETQPPVALKKEGIRRVGRRPDQQLQGEGKIIDRRPERRPPRERRFEKPLEEKGEGGEFSVDRPIIDRPIRGRGGLGRGRGGRGRGMGRGDGFDSRGKREFDRHSGSDRSSFSHYSGLKHEDKRGGSGSHNWGTVKDELTESPKYIQKQISYNYSDLDQSNVTEETPEGEEHHPVADTENKENEVEEVKEEGPKEMTLDEWKAIQNKDRAKVEFNIRKPNEGADGQWKKGFVLHKSKSEEAHAEDSVMDHHFRKPANDITSQLEINFGDLGRPGRGGRGGRGGRGRGGRPNRGSRTDKSSASAPDVDDPEAFPALA	−0.45		−0.45	−0.66	−0.06

From US20140274782A1, “AFFINITY REAGENTS AND METHODS FOR DETECTION, PURIFICATION, AND PROTEOMIC ANALYSIS OF METHYLATED PROTEINS” (The Board of Trustees of the Leland Stanford Junior …, priority 2013, published 2014)
